{"source": "paper PMC6704176", "origin": "cited, not measured here", "target": "SRSRY (uPAR-derived peptide) (Homo sapiens)", "data": [{"substance": "FPR1 (from UniProt P21462)", "values": [{"measurement": "Kd", "value": 30, "unit": "nM"}]}]}
